Results reported in PMC8190030.

Experiments:
Conditions in all cases: remark: other sources report otherwise
[1] = molecular target: T1, N- (neural) cadherin of human fibroblasts (human (endogenous in primary fibroblasts)), P19022; assay: AFM single-cell force spectroscopy; DMSO control of the drug series; cell on cantilever against cell monolayer
T1 chain: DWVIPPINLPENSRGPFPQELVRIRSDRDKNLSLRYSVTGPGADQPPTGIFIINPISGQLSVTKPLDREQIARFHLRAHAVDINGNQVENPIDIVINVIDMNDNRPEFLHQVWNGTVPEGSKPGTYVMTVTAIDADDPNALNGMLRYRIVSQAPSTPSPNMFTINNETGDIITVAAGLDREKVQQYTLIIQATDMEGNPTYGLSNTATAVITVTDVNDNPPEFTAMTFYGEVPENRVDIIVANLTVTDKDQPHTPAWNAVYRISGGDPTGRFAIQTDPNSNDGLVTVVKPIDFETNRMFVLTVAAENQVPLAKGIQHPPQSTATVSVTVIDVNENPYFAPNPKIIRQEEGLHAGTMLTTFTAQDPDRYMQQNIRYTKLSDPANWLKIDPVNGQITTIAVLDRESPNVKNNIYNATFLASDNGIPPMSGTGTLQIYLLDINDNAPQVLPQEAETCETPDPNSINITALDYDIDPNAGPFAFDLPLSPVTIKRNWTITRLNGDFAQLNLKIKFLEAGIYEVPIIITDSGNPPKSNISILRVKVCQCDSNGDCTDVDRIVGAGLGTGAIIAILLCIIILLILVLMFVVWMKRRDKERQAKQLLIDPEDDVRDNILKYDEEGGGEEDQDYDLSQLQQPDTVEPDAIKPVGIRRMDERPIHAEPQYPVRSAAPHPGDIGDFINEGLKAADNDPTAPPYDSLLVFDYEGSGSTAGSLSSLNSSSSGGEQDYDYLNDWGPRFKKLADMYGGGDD

[2] = molecular target: T1, N- (neural) cadherin of human …; assay: as above
[3] = molecular target: T1, N- (neural) cadherin of human …; assay: AFM single-cell force spectroscopy; as a1, approach and retract velocity 10 µm/sec
[4] = molecular target: T1, N- (neural) cadherin of human …; assay: AFM single-cell force spectroscopy; control of the drug series (no drug and no DMSO); cell on cantilever against cell monolayer; velocity not stated for this series
[5] = molecular target: T1, N- (neural) cadherin of human …; assay: AFM single-cell force spectroscopy; with 5 µM cytochalasin D (actin filaments disassembled); cell on cantilever against cell monolayer
[6] = molecular target: T1, N- (neural) cadherin of human …; assay: AFM single-cell force spectroscopy; living cell on a conA-coated tipless cantilever against a cell monolayer in a Petri dish; approach and retract velocity 3 µm/sec, maximum loading force 3 nN, contact time 2 s; 5% CO2; cadherin type assigned from immunofluorescence
[7] = molecular target: T1, N- (neural) cadherin of human …; assay: AFM single-cell force spectroscopy; as a1, approach and retract velocity 5 µm/sec
[8] = molecular target: T1, N- (neural) cadherin of human …; assay: AFM single-cell force spectroscopy; control of the drug series (no drug and no DMSO); cell on cantilever against cell monolayer; velocity not stated for this series
[9] = molecular target: T1, N- (neural) cadherin of human …; assay: AFM single-cell force spectroscopy; as a1, approach and retract velocity 7.5 µm/sec
[10] = molecular target: T1, N- (neural) cadherin of human …; assay: AFM single-cell force spectroscopy; with 5 µM ML-7 (myosin light chain kinase inhibited); cell on cantilever against cell monolayer

- median rupture force (NF–NF cells) [1]: 60.2 pN
- median rupture force (SF–SF cells) [1]: 48.3 pN
- median rupture force (NF–NF cells) [2]: 52 pN
- median rupture force (SF–SF cells) [2]: 53.1 pN
- median rupture force (NF–NF cells) [3]: 117 pN
- median rupture force (SF–SF cells) [3]: 129 pN
- median rupture force (NF–NF cells) [4]: 61.9 pN
- median rupture force (SF–SF cells) [4]: 58.4 pN
- median rupture force (NF–NF cells) [5]: 31.1 pN
- median rupture force (SF–SF cells) [5]: 30.5 pN
- median rupture force (NF–NF cells) [6]: 51.9 pN
- median rupture force (SF–SF cells) [6]: 45.2 pN
- median rupture force (NF–NF cells) [7]: 73.4 pN
- median rupture force (SF–SF cells) [7]: 74.2 pN
- median rupture force (NF–NF cells) [8]: 58.8 pN
- median rupture force (SF–SF cells) [8]: 66.2 pN
- median rupture force (NF–NF cells) [9]: 97.2 pN
- median rupture force (SF–SF cells) [9]: 103 pN
- median rupture force (NF–NF cells) [10]: 48.9 pN
- median rupture force (SF–SF cells) [10]: 49 pN
B1: N- (neural) cadherin of human fibroblasts, P19022 160-906 (natural protein)
chain: T1 chain
